B1: TSPAN10 (parent)
chain: EGCGPPLRRWLRANLAASGGYAIA

Variants of: B1
Assay: protein stability index of a GFP-peptide fusion (GPS, HEK-293T) (PSI 1-6); higher = more stable
Conditions: c terminus: a fixed tail appended
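Further: lentivirally expressed fusions sorted by FACS into six bins by GFP to DsRed ratio, PSI derived from sequencing read proportions per bin multiplied by bin number.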

Row | Variant | protein stability index
1 | EGCGPPLRRWLAANLAASGGYAIA | 1.75
2 | EGCGPTLRRWLRANLAASGGYAIA | 2.46
3 | EGCGPPLRRWLRSNLAASGGYAIA | 2.58
4 | EGCGPPYRRWLRANLAASGGYAIA | 2
5 | EGCGPPLRRWLRANLAASGGYATA | 2.53
6 | EGCGPPLRRWLRKNLAASGGYAIA | 2.95
7 | EGCGPPFRRWLRANLAASGGYAIA | 1.4
8 | EGCGPPLRRWLRANLYASGGYAIA | 1.48
9 | EGCGPRLRRWLRANLAASGGYAIA | 1.95
10 | EGCGPPLRRWLQANLAASGGYAIA | 2.17
11 | EGAGPPLRRWLRANLAASGGYAIA | 2.3
12 | EGCGPPLRRWLRANLAASGGYAIW | 2.25
13 | EICGPPLRRWLRANLAASGGYAIA | 2.15
14 | EGCGPPLRRWLRTNLAASGGYAIA | 2.25
15 | EGCGPPLRRWLRANLAHSGGYAIA | 2
16 | EGCGPALRRWLRANLAASGGYAIA | 2.2
17 | EGCGPPLRRWLRANLMASGGYAIA | 2.98
18 | EGCGPPLRWWLRANLAASGGYAIA | 1
19 | EGCGPPLRRWLRANLAVSGGYAIA | 1.4
20 | EGCGPPLRRWLRANLAASGGRAIA | 2.3
21 | SGCGPPLRRWLRANLAASGGYAIA | 2.37
22 | EGCGPPDRRWLRANLAASGGYAIA | 2.33
23 | EGCGPPLRSWLRANLAASGGYAIA | 2.33
24 | EGCGPKLRRWLRANLAASGGYAIA | 1.97

Row | Variant | protein stability index
25 | EGCGPPLRRWLRAFLAASGGYAIA | 1.92
26 | LGCGPPLRRWLRANLAASGGYAIA | 1.81
27 | EGCVPPLRRWLRANLAASGGYAIA | 2.25
28 | EGCGPPLRRWLCANLAASGGYAIA | 2.17
29 | EGCGPPLRRWLRANLAASYGYAIA | 1.93
30 | EGCGPPLRRWLRANLAASGGYAIR | 2.12
31 | EGCGPPLRRWLRANLAASGGYAID | 2.42
32 | EGCGPPLRRWHRANLAASGGYAIA | 2.94
33 | EGCGPPLRRWLRANLAASGGYAVA | 2.11
34 | EGCGPPLRRWLRANLARSGGYAIA | 1.44
35 | EGCGPDLRRWLRANLAASGGYAIA | 1.94
36 | EGCGPPLRRFLRANLAASGGYAIA | 1.61
37 | EGCGPPLRRWLRAELAASGGYAIA | 1.47
38 | EGCGPPLDRWLRANLAASGGYAIA | 1.47
39 | EGCGPPLRRWLMANLAASGGYAIA | 1.9
40 | EGCGPPLRRWLRINLAASGGYAIA | 1.67
41 | EGCMPPLRRWLRANLAASGGYAIA | 1.83
42 | EGCYPPLRRWLRANLAASGGYAIA | 1.83
43 | EGCGPPLRRWLRANLAASGGYAIL | 2.81
44 | EGCGPPLRRELRANLAASGGYAIA | 3.4
45 | EGCGPPLRRWLRANLEASGGYAIA | 2.58
46 | EGCGPPLRRWLRANLTASGGYAIA | 1.63
47 | EGCWPPLRRWLRANLAASGGYAIA | 2.15
48 | EGCGPPARRWLRANLAASGGYAIA | 1.91

Row | Variant | protein stability index
49 | EGCGPPLRRWLEANLAASGGYAIA | 2.23
50 | EGCGPPLRRWLRRNLAASGGYAIA | 1.62
51 | EGCGPPLRRWLRANLAFSGGYAIA | 1.35
52 | EGCGPPLRRWLRANLAASLGYAIA | 2.17
53 | EGCGPPLRRWLRANLAASGGYANA | 2.92
54 | EGCGPPLRRWLRANLAASWGYAIA | 3.26
55 | EECGPPLRRWLRANLAASGGYAIA | 1.97
56 | EGCGPPLRRWLRANVAASGGYAIA | 2.07
57 | EGCGPPLRRWLRANLAASGGYWIA | 2.18
58 | EGCGPPLRRWLRANLAASGGYTIA | 1.7
59 | EGCGPPLRRWLRLNLAASGGYAIA | 2.21
60 | EGCGPPLRRKLRANLAASGGYAIA | 2.09
61 | EGCGPPLRRWLRANLPASGGYAIA | 1.78
62 | EGCGPPLRRWLWANLAASGGYAIA | 3.67
63 | EGCGPPLRRWLRANLAASGGEAIA | 2.4
64 | EGCGPPLRRWLRANLAASGGYARA | 2.6
65 | EGCGPPLRRWLRVNLAASGGYAIA | 1.75
66 | EGCGNPLRRWLRANLAASGGYAIA | 2.02
67 | EGCGPPLRRWLRANLHASGGYAIA | 2.13
68 | EGCGPPLRRWLRWNLAASGGYAIA | 2.03
69 | EGCGPPLRRWLRANMAASGGYAIA | 2.16
70 | EPCGPPLRRWLRANLAASGGYAIA | 1.85
71 | EGCGPPLARWLRANLAASGGYAIA | 1.04
72 | EGCGPPLRRWARANLAASGGYAIA | 2.55

Row | Variant | protein stability index
73 | EGCGPPLRRWLRANLAASGGYAIM | 1.93
74 | EGCGPPLRRWLRANLAASGVYAIA | 2.21
75 | EGCGPPLRIWLRANLAASGGYAIA | 2.9
76 | EGCGGPLRRWLRANLAASGGYAIA | 2.08
77 | EGCGPPLRRWLRANLAASGMYAIA | 1.84
78 | EGCGPPLRRWLGANLAASGGYAIA | 1.82
79 | EGCGPPVRRWLRANLAASGGYAIA | 2.3
80 | EGCGPPLRLWLRANLAASGGYAIA | 1.05
81 | EGCGPPLRRWLRANLAASGGYAIG | 1.65
82 | EGCGPPLRVWLRANLAASGGYAIA | 1.65
83 | EGCGPPLRRWLRANLAAPGGYAIA | 2.28
84 | EGCGPPLRRMLRANLAASGGYAIA | 2.62
85 | EGCGPPLRRWLRANLAASGGYAYA | 1.73
86 | EGCGPPLRRVLRANLAASGGYAIA | 1.89
87 | EGCGPPLRRWLRANLAASGGCAIA | 2.36
88 | EGCGPPLRRWLRANLAWSGGYAIA | 2.03
89 | EGCGPPLRRWQRANLAASGGYAIA | 3.13
90 | EGCGPPSRRWLRANLAASGGYAIA | 2.29
91 | EGCGPPLRRWLRANLAAHGGYAIA | 1.87
92 | EGCGPPNRRWLRANLAASGGYAIA | 2.67
93 | EGCGPPLRRWLRANLAASGGYAIT | 2
94 | EGCGPPLRRTLRANLAASGGYAIA | 3.01

— the supplement of paper PMC10567573
